Results on 14 molecules are retold here after patent publication US20170008955A1 (CNJ, published 2017).

Test [1] addresses T1, cSNK:BSA conjugate (bovine, head-to-tail cyclized; conjugated to BSA carrier).
T1 construct: also called BSA-cSNK
The experiment in a line: BLI (Octet), KD1. On the technique in general: Biolayer interferometry detects binding as a change in optical thickness at a sensor tip.

The target in test [2] is T1, cSNK:BSA conjugate. Nature of the test: BLI (Octet), KD2.

T1 sequence (P02769 25-607 limits assumed): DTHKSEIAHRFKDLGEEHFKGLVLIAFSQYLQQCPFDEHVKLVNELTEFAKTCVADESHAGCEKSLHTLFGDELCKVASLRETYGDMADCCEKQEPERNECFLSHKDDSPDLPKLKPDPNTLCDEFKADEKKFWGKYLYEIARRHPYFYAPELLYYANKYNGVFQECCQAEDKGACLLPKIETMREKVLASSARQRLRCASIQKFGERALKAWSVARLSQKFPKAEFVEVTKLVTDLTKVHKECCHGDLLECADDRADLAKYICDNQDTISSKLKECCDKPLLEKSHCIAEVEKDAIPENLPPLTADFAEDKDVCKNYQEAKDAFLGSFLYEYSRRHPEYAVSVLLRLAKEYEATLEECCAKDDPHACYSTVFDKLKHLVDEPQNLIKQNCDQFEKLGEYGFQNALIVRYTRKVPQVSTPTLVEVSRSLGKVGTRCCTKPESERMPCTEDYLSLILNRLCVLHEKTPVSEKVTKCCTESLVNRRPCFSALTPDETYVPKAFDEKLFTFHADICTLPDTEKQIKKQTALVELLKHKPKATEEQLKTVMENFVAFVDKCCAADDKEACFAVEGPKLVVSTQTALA

B1: 5E3HCDR1-S184D (antibody, V domains shown)
VH: QVQLQQSGPEVKKPGASVKISCKASGYIFTDYYIQWVIHAPGQGLEWIGWIYPGNVNTKYNEKFKGKATLTADKSSSTAYMELSSLTSEDTAVYFCARMDYEAHYWGQGTTVTVSS
VL: DIQMTQSPSSLSASVGDRVTITCRASQEISGYLTWLQQKPEGAIKRLIYAASTLDSGVPKRFSGSRSGSDYSLTISSLQPEDFATYNCLQYANYPRTFGGGTKLEIK
notes: hu5E3 IgG1 vector mutant; also called 5E3-S184D-AFF
As for B1, the results for the Kd with cSNK:BSA conjugate [1] and in the test with cSNK:BSA conjugate [2] were 0.214 nM and 3.41 nM, respectively.

B2: 5E3HCDR3-E209D (antibody, IgG1, V domains shown)
VH: QVQLQQSGPEVKKPGASVKISCKASGYIFTSYYIQWVIHAPGQGLEWIGWIYPGNVNTKYNEKFKGKATLTADKSSSTAYMELSSLTSEDTAVYFCARMDYDAHYWGQGTTVTVSS
VL: DIQMTQSPSSLSASVGDRVTITCRASQEISGYLTWLQQKPEGAIKRLIYAASTLDSGVPKRFSGSRSGSDYSLTISSLQPEDFATYNCLQYANYPRTFGGGTKLEIK
notes: hu5E3 IgG1 vector mutant; same change as 5E3HCDR3-E255D
As for B2, the Kd (commonly the free concentration of one partner at which half of the binding sites on the other are occupied at equilibrium, for simple one-to-one binding) with cSNK:BSA conjugate [1] came out at 3.21 nM; with cSNK:BSA conjugate [2], 9.13 nM.

B3: 5E3HCDR3-Y212F (antibody, IgG1, V domains shown)
VH: QVQLQQSGPEVKKPGASVKISCKASGYIFTSYYIQWVIHAPGQGLEWIGWIYPGNVNTKYNEKFKGKATLTADKSSSTAYMELSSLTSEDTAVYFCARMDYEAHFWGQGTTVTVSS
VL: DIQMTQSPSSLSASVGDRVTITCRASQEISGYLTWLQQKPEGAIKRLIYAASTLDSGVPKRFSGSRSGSDYSLTISSLQPEDFATYNCLQYANYPRTFGGGTKLEIK
notes: hu5E3 IgG1 vector mutant
Regarding B3, the Kd is 1.58 nM with cSNK:BSA conjugate [1] and 8.25 nM in the test with cSNK:BSA conjugate [2].

B4: 5E3KCDR2-S80D (antibody, IgG1, V domains shown)
VH: QVQLQQSGPEVKKPGASVKISCKASGYIFTSYYIQWVIHAPGQGLEWIGWIYPGNVNTKYNEKFKGKATLTADKSSSTAYMELSSLTSEDTAVYFCARMDYEAHYWGQGTTVTVSS
VL: DIQMTQSPSSLSASVGDRVTITCRASQEISGYLTWLQQKPEGAIKRLIYAASTLDDGVPKRFSGSRSGSDYSLTISSLQPEDFATYNCLQYANYPRTFGGGTKLEIK
notes: hu5E3 IgG1 vector mutant; also called 5E3-S80D-AFF
Consider B4, for which the figures for the Kd with cSNK:BSA conjugate [1] and with cSNK:BSA conjugate [2] were 0.0269 nM and 3.95 nM, respectively.

B5: 5E3KCDR2-A74D (antibody, IgG1, V domains shown)
VH: QVQLQQSGPEVKKPGASVKISCKASGYIFTSYYIQWVIHAPGQGLEWIGWIYPGNVNTKYNEKFKGKATLTADKSSSTAYMELSSLTSEDTAVYFCARMDYEAHYWGQGTTVTVSS
VL: DIQMTQSPSSLSASVGDRVTITCRASQEISGYLTWLQQKPEGAIKRLIYDASTLDSGVPKRFSGSRSGSDYSLTISSLQPEDFATYNCLQYANYPRTFGGGTKLEIK
notes: hu5E3 IgG1 vector mutant; also called 5E3-A74D-AFF
Turning to B5, the values for the Kd with cSNK:BSA conjugate [1] and with cSNK:BSA conjugate [2] were 0.302 nM and 3.06 nM, respectively.

B6: 5E3HCDR2-K212D (antibody, IgG1, V domains shown)
VH: QVQLQQSGPEVKKPGASVKISCKASGYIFTSYYIQWVIHAPGQGLEWIGWIYPGNVNTDYNEKFKGKATLTADKSSSTAYMELSSLTSEDTAVYFCARMDYEAHYWGQGTTVTVSS
VL: DIQMTQSPSSLSASVGDRVTITCRASQEISGYLTWLQQKPEGAIKRLIYAASTLDSGVPKRFSGSRSGSDYSLTISSLQPEDFATYNCLQYANYPRTFGGGTKLEIK
notes: hu5E3 IgG1 vector mutant; also called 5E3-K212D-AFF
In the case of B6, the Kd in the test with cSNK:BSA conjugate [1] is 0.0171 nM; with cSNK:BSA conjugate [2], 2.36 nM.

B7: 5E3KCDR2-G81D (antibody, IgG1, V domains shown)
VH: QVQLQQSGPEVKKPGASVKISCKASGYIFTSYYIQWVIHAPGQGLEWIGWIYPGNVNTKYNEKFKGKATLTADKSSSTAYMELSSLTSEDTAVYFCARMDYEAHYWGQGTTVTVSS
VL: DIQMTQSPSSLSASVGDRVTITCRASQEISGYLTWLQQKPEGAIKRLIYAASTLDSDVPKRFSGSRSGSDYSLTISSLQPEDFATYNCLQYANYPRTFGGGTKLEIK
notes: hu5E3 IgG1 vector mutant; also called 5E3-G81D-AFF
Turning to B7, the figures for the Kd in the test with cSNK:BSA conjugate [1] and in the test with cSNK:BSA conjugate [2] were 0.0192 nM and 2.33 nM, respectively.

B8: 5E3HCDR3-A210G (antibody, IgG1, V domains shown)
VH: QVQLQQSGPEVKKPGASVKISCKASGYIFTSYYIQWVIHAPGQGLEWIGWIYPGNVNTKYNEKFKGKATLTADKSSSTAYMELSSLTSEDTAVYFCARMDYEGHYWGQGTTVTVSS
VL: DIQMTQSPSSLSASVGDRVTITCRASQEISGYLTWLQQKPEGAIKRLIYAASTLDSGVPKRFSGSRSGSDYSLTISSLQPEDFATYNCLQYANYPRTFGGGTKLEIK
notes: hu5E3 IgG1 vector mutant
As to B8, the Kd with cSNK:BSA conjugate [1] came out at 1.73 nM; with cSNK:BSA conjugate [2], 9.97 nM.

B9: 5E3HCDR2-V209Y (antibody, IgG1, V domains shown)
VH: QVQLQQSGPEVKKPGASVKISCKASGYIFTSYYIQWVIHAPGQGLEWIGWIYPGNYNTKYNEKFKGKATLTADKSSSTAYMELSSLTSEDTAVYFCARMDYEAHYWGQGTTVTVSS
VL: DIQMTQSPSSLSASVGDRVTITCRASQEISGYLTWLQQKPEGAIKRLIYAASTLDSGVPKRFSGSRSGSDYSLTISSLQPEDFATYNCLQYANYPRTFGGGTKLEIK
notes: hu5E3 IgG1 vector mutant
For the molecule B9, the Kd in the test with cSNK:BSA conjugate [1] is 0.0107 nM; with cSNK:BSA conjugate [2], 2.4 nM.

B10: 5E3HCDR3-E209Q (antibody, IgG1, V domains shown)
VH: QVQLQQSGPEVKKPGASVKISCKASGYIFTSYYIQWVIHAPGQGLEWIGWIYPGNVNTKYNEKFKGKATLTADKSSSTAYMELSSLTSEDTAVYFCARMDYQAHYWGQGTTVTVSS
VL: DIQMTQSPSSLSASVGDRVTITCRASQEISGYLTWLQQKPEGAIKRLIYAASTLDSGVPKRFSGSRSGSDYSLTISSLQPEDFATYNCLQYANYPRTFGGGTKLEIK
notes: hu5E3 IgG1 vector mutant
As for B10, the Kd worked out at 1.86 nM in the test with cSNK:BSA conjugate [1] and 6.05 nM with cSNK:BSA conjugate [2].

B11: 5E3HCDR3-Y208F (antibody, IgG1, V domains shown)
VH: QVQLQQSGPEVKKPGASVKISCKASGYIFTSYYIQWVIHAPGQGLEWIGWIYPGNVNTKYNEKFKGKATLTADKSSSTAYMELSSLTSEDTAVYFCARMDFEAHYWGQGTTVTVSS
VL: DIQMTQSPSSLSASVGDRVTITCRASQEISGYLTWLQQKPEGAIKRLIYAASTLDSGVPKRFSGSRSGSDYSLTISSLQPEDFATYNCLQYANYPRTFGGGTKLEIK
notes: hu5E3 IgG1 vector mutant
For the molecule B11, the Kd stood at 21.5 nM with cSNK:BSA conjugate [1] and 0.001 nM with cSNK:BSA conjugate [2].

B12: 5E3KCDR3-L89I + 5E3HCDR3-E209Q (antibody, IgG1, V domains shown)
VH: QVQLQQSGPEVKKPGASVKISCKASGYIFTSYYIQWVIHAPGQGLEWIGWIYPGNVNTKYNEKFKGKATLTADKSSSTAYMELSSLTSEDTAVYFCARMDYQAHYWGQGTTVTVSS
VL: DIQMTQSPSSLSASVGDRVTITCRASQEISGYLTWLQQKPEGAIKRLIYAASTLDSGVPKRFSGSRSGSDYSLTISSLQPEDFATYNCIQYANYPRTFGGGTKLEIK
notes: double combination in hu5E3 IgG1
On to B12, for which, in the test with cSNK:BSA conjugate [1], the Kd was found to be 19.8 nM.

B13: 5E3HCDR3-E255D (antibody, IgG1, V domains shown)
VH: QVQLQQSGPEVKKPGASVKISCKASGYIFTSYYIQWVIHAPGQGLEWIGWIYPGNVNTKYNEKFKGKATLTADKSSSTAYMELSSLTSEDTAVYFCARMDYDAHYWGQGTTVTVSS
VL: DIQMTQSPSSLSASVGDRVTITCRASQEISGYLTWLQQKPEGAIKRLIYAASTLDSGVPKRFSGSRSGSDYSLTISSLQPEDFATYNCLQYANYPRTFGGGTKLEIK
notes: hu5E3 IgG1 vector mutant; same change as 5E3HCDR3-E209D; also called 5E3-E255D-AFF
Regarding B13, the Kd with cSNK:BSA conjugate [1] was found to be 0.0333 nM; in the test with cSNK:BSA conjugate [2], 2.57 nM.

B14: 5E3KCDR2-S80Y (antibody, IgG1, V domains shown)
VH: QVQLQQSGPEVKKPGASVKISCKASGYIFTSYYIQWVIHAPGQGLEWIGWIYPGNVNTKYNEKFKGKATLTADKSSSTAYMELSSLTSEDTAVYFCARMDYEAHYWGQGTTVTVSS
VL: DIQMTQSPSSLSASVGDRVTITCRASQEISGYLTWLQQKPEGAIKRLIYAASTLDYGVPKRFSGSRSGSDYSLTISSLQPEDFATYNCLQYANYPRTFGGGTKLEIK
notes: hu5E3 IgG1 vector mutant
On to B14, for which the results for the Kd with cSNK:BSA conjugate [1] and in the test with cSNK:BSA conjugate [2] were 0.0138 nM and 3.05 nM, respectively.
